experiment: soluble on expression in E. coli; label from the status in PepcDB or PDB records

Soluble on expression in E. coli, not soluble:
MADDGVNPKAFPLADTNLSQKLMDLVQQAMNYKQLKKGANEATKTLNRGISEIIVMAADAEPLEILLHLPLLCEDKNVPYVFVRSKAALGRACGVTRPVIAASITQNEGSQLKSQIQKIKEDVEKLLI
MSSDANSDDPFSKPIVRKRFQATLAQQGIEDDQLPSVRSSDSPDVPDTPDVPVNQLSSPPLSLPETLSEGNAETNLSDDSEPEMLSQSSTSSLNRRMEDSAIDPSRGTRKSQSRGFDYDPAGERTTAPVQKKKKDEIDMGGAKFFPKQEKKHVYTHKWTTEEDDEDEKTISSSSNRYSSRPNQPAVSARPRQPVYATTSTYSKPLASGYGSRVRHIKEANELRESGEYDDFKQDLVYILSSLQSSDASMKVKCLSAISLAKKCVSPDFRQFIKSENMTKSIVKALMDSPEDDLFALAASTVLYLLTRDFNSIKIDFPSLRLVSQLLRIEKFEQRPEDKDKVVNMVWEVFNSYIEKQEVGGQKVSFDMRKESLTPSSLIIEALVFICSRSVNDDNLKSELLNLGILQFVVAKIETNVNLIADNADDTYSILILNRCFRILESSSVFHKKNQAFLISHRSNILISSLAKFLQVILDRVHQLAEEEVKKYISCLALMCRLLINISHDNELCCSKLGQIEGFLPNAITTFTYLAPKFGKENSYDINVMMTSLLTNLVERCNANRKVLIAQTVKMVIPGHDVEEVPALEAITRLFVYHESQAQIVDADLDRELAFDEGGCGDEEEEEEGGDESSDEDGVRKDGRLDRNKMDRMDQVDVVHALQQVMNKASAHMEGSVIASYHALLVGFVLQQNEDHLDEVRKHLPGKNFQNMISQLKRLYDFTKATMAKRVESNSGFRAIERVIEYLERLE
SLGMDEKSVAIVFPHHLLEDHPAAGKTSGFILVEDQLFFGDPVFGLRFHKNKLVLHRASMRYYHDHLKSRGLKAEYIQYSPDPHMGYLRDHLEGYDRVYTLELLDHELEARMKKLSMELGLEITEIEAPFIFRRNLMDGYFRDGRFLLRSFYIRERKRLSILMENSRPAGGKWTFDTENRKRMPPDLQVPAPVKLPENEYVQEAKEYVSEKFPDNPGSMDRFNYP
MGSDKIHHHHHHMKNVVTDPEKVTRILKTATEIFGQQGFIKSKTDQIANQAQVSKGLLFHYFGNKQALYLDAFKYAYHRIYDHMDPKKWQNAPGLAAMMTTAVKYELKLQFKFPAEYRLMMQAYADLPHFPEPLRQQVQQETTAISAEADRIFREKIEQLPRREGLSVDDVFGVVSALIAQQTAVTTRLIASGHYRKFEDLQSVVETMARQLLIVEHGFLPDES
MSLDTTALPHTTFEGIPLDGKNKQDIQKIVQQKVEELNKKSLNYVFENNTQTYTWKDLGVEYKEKDIVANIFKEQQGNIIDRYNMRKKAIHGELKREYKLKPQLNSTAYEAFMEDKYNETLKNPVNAELNISGTTVNISESQNGEKIDKEQLAILTKQAIAANTQNIKLPIASIKPERSTEDIQNMGIKQVIAEYSTPMTGRNGSQSFNVNKSANTLSGAIVAPDETFSFNGRVGITDAAHGYKSAAVYLQGKVVQSAGGGVCQVSSTLYGAVLRADLGVVARSNHSMPVHYLPLGQDAAVADYGPDLKFKNNTGHYIYIQAFSDGNRITTRIFGTPTGKNVEVSSKVISNTGNKITAVTYKKVTKDGQVISNGQISKSVYKKEGHHHHHH
MILFDYKLLAALAAVVEQGGFERAAQALGLSQSAVSQRIKLLEARVGQPVLVRETPPHPTDLGRRLLNHVQQVRLLEGDLQRWVPNLDEGGAPERLRIALNADSLATWWAAAVGDFCAERRVLLDLVVEDQEVGLKRMRAGEVAGCVCGSARPVAGARSLLLGAMRYRGLASPDFIARHFPRGVEAAALAGVPAIVFGPDDLLQHRFLKDLGVEGGFIHHLCPSSEGFVRLTAGGLGWGLVPERQVQGELARGELVELLPGQVIDVPLYWHYWRNGGELLASLTEHLLARAGDGLVRVSG
MGSDKIHHHHHHATVTDSASTDIGIGFSGHGPGTTPGPLDIQWAPIGLDFSNSNMVNTTAVQAFPETTGTNKYVVVSEKRSNEPTREWSLTAQLSDLTNAGGSETLTGAGLKFDAAVKGYTGTNTPESPGSIVDKGARTATVNASSQSVTAGAAAVPVMKDAGTGGASFLGSTAMEMSNVKLEVPANAAKINQQYSGTLTWSLNDTI
MNNSSNADSQEGSTSAQKQKTANPSESRPFVLKKWNALAVWAWDVECDTCAICRVHLMEECLRCQSEPSAECYVVWGDCNHSFHHCCMTQWIRQNNRCPLCQKDWVVSRTSK
MITELTNIHLIKGNLQANSKNEVFAELAQMLLENNRISNKEDFLNDIEIRERLSVTSMDGIAYPHSKSKAVTKPAIAVGVKHEGIEYGDEEGIKPTVFFMIASPDNGADHHIYVLQELFGKFSEEFIEDIHNAKNEHQILNISIQS
MARVRIVAKKNGPYLLEVDGKVQTALCRCGHSNNKPYCDGTHARVGFQADEKVAFEAEFAAALEHHHHHH
MGSDKIHHHHHHMSNDKEIIKRAVERHDIDSSIFQGRYVNFTQGKYTDEFIYGRYQMFEEIDRILSSLPKGAKVLDLGCGTGHFSTYIKTLCYEVTGLDPSTKMLDYARQNFPEITFVEGYSNALPFEDNTFDLIISIEVLRYLDTKIVLESYEEIYRTLKPNGKMFITHVNTLATEGYYIFYHLKKLAHSFKGKEYHSAYFTSANKEERTLKKIGFKNISCIGRMFATVRTGYKFGKTIGKTYAKLLEKFNPKQRFEKSHFKNFTGHLIVIAEK

Soluble on expression in E. coli, soluble:
MKIGIIGATGKAGSRILKEALDRGHEVTAIVRNAAKITEENVKVLEKDVFSLTSNDLQAFDVVVNAFGAPAGHDHLHVDAGNVLIEAMKGAPNTKLVVVGGAGSLFVDEEKTTRVFETPGFPEEYLATAQNQGKNLEILQQTNDITWTFISPSALFALGKRTGSYKAGKDNLLVNAKGDSYVSYEDFAVAALDEIENPKHVNERFTVVSEAELEHHHHHH
MSLVAFHEVRFPLRLALGVSGGPVRRTDIVNLSNGRENRNQRWRNARRAYDAGSGIRSVADLYEVLAFFEARRGEMYGFRFRDPVDFKSCPPGETPAATDQRIGTGDGVVTGFQLVKTYADAGGSFSRRIDKPVEGSVIVSVEGVKAAPTDLSVDHATGMVIFRAGRAPPTGAVIRAGFEFDVPVRFAIDRIDINVTAFEAGRIPSIPLMEILPEGHHHHHH
MSTSSNKSDAIKQTRAFSILLMGVDTGSSERASKWEGNSDSMILVTVNPKTKKTTMTSLERDTLTTLSGPKNNEMNGVEAKLNAAYAAGGAQMAIMTVQDLLNITIDNYVQINMQGLIDLVNAVGGITVTNEFDFPISIAENEPEYQATVAPGTHKINGEQALVYARMRYDDPEGDYGRQKRQREVIQKVLKKILALDSISSYRKILSAVSSNMQTNIEISSRTIPSLLGYRDALRTIKTYQLKGEDATLSDGGSYQIVTSNHLLEIQNRIRTELGLHKVNQLKTNATVYENLYGSTKSQTVNNNYDSSGQAPSYSDSHSSYANYSSGVDTGQSASTDQDSTASSHRPATPSSSSDALAADESSSSGSGSLVPPANINPQTLEHHHHHH
PQKICLICGDEASGCHYGVLTCGSCKVFFKRAMEGQHNYLCAGRNDCIVDKIRRKNCPACRLRKCCQAGMVLGGRKFK

From the DeepSol protein solubility set
